Assay results: the Human Domainome abundance scans (Beltran et al. 2025)
± gives the uncertainty stated by the source.

B1: Spectrin alpha chain, erythrocytic 1, residues 979 to 1036; numbered along this chain, P02549 (parent)
chain: EQRVMALYDFQARSPREVTMKKGDVLTLLSSINKDWWKVEAADHQGIVPAVYVRRLAH
B2: DNA topoisomerase 3-alpha, residues 812 to 851; numbered along this chain, Q13472 (parent)
chain: TCNCGQEAVLLTVRKEGPNRGRQFFKCNGGSCNFFLWADS

Variants of: B1
Test: abundance fitness (aPCA) (normalised: wild type 0, dead -1); higher = more abundant; growth selection in yeast, the domain comes from the species named
Conditions: Homo sapiens
EQTVMALYDFQARSPREVTMKKGDVLTLLSSINKDWWKVEAADHQGIVPAVYVRRLAH [R3T] showed an abundance fitness of -0.778 ± 0.14. EQFVMALYDFQARSPREVTMKKGDVLTLLSSINKDWWKVEAADHQGIVPAVYVRRLAH [R3F] showed an abundance fitness of 0.074 ± 0.12. In the case of EQLVMALYDFQARSPREVTMKKGDVLTLLSSINKDWWKVEAADHQGIVPAVYVRRLAH [R3L], the abundance fitness is reported as -0.14 ± 0.11. For EQVVMALYDFQARSPREVTMKKGDVLTLLSSINKDWWKVEAADHQGIVPAVYVRRLAH [R3V], the abundance fitness was -0.828 ± 0.36. EQYVMALYDFQARSPREVTMKKGDVLTLLSSINKDWWKVEAADHQGIVPAVYVRRLAH [R3Y] gave an abundance fitness of 0.294 ± 0.17. Work on EQHVMALYDFQARSPREVTMKKGDVLTLLSSINKDWWKVEAADHQGIVPAVYVRRLAH [R3H] yielded an abundance fitness of -0.408 ± 0.21. In the case of EQPVMALYDFQARSPREVTMKKGDVLTLLSSINKDWWKVEAADHQGIVPAVYVRRLAH [R3P], the abundance fitness is reported as -0.94 ± 0.36. In the case of EQSVMALYDFQARSPREVTMKKGDVLTLLSSINKDWWKVEAADHQGIVPAVYVRRLAH [R3S], the abundance fitness is reported as -0.737 ± 0.2. EQMVMALYDFQARSPREVTMKKGDVLTLLSSINKDWWKVEAADHQGIVPAVYVRRLAH [R3M] showed an abundance fitness of -0.448 ± 0.14. In the case of EQCVMALYDFQARSPREVTMKKGDVLTLLSSINKDWWKVEAADHQGIVPAVYVRRLAH [R3C], the abundance fitness is reported as -0.645 ± 0.34. EQQVMALYDFQARSPREVTMKKGDVLTLLSSINKDWWKVEAADHQGIVPAVYVRRLAH [R3Q] showed an abundance fitness of -0.272 ± 0.11. In the case of EQAVMALYDFQARSPREVTMKKGDVLTLLSSINKDWWKVEAADHQGIVPAVYVRRLAH [R3A], the abundance fitness is reported as -0.574 ± 0.2. Variant EQRAMALYDFQARSPREVTMKKGDVLTLLSSINKDWWKVEAADHQGIVPAVYVRRLAH [V4A] has an abundance fitness of -0.945 ± 0.25. EQRQMALYDFQARSPREVTMKKGDVLTLLSSINKDWWKVEAADHQGIVPAVYVRRLAH [V4Q] gave an abundance fitness of -0.145 ± 0.18. With EQRMMALYDFQARSPREVTMKKGDVLTLLSSINKDWWKVEAADHQGIVPAVYVRRLAH [V4M] the abundance fitness was -0.716 ± 0.31. With EQRPMALYDFQARSPREVTMKKGDVLTLLSSINKDWWKVEAADHQGIVPAVYVRRLAH [V4P] the abundance fitness was -0.927 ± 0.21. EQRLMALYDFQARSPREVTMKKGDVLTLLSSINKDWWKVEAADHQGIVPAVYVRRLAH [V4L] gave an abundance fitness of -0.537 ± 0.098. EQRKMALYDFQARSPREVTMKKGDVLTLLSSINKDWWKVEAADHQGIVPAVYVRRLAH [V4K] showed an abundance fitness of -0.739 ± 0.16. EQRCMALYDFQARSPREVTMKKGDVLTLLSSINKDWWKVEAADHQGIVPAVYVRRLAH [V4C] showed an abundance fitness of -0.52 ± 0.33. Work on EQRRMALYDFQARSPREVTMKKGDVLTLLSSINKDWWKVEAADHQGIVPAVYVRRLAH [V4R] yielded an abundance fitness of -0.877 ± 0.12. Work on EQRTMALYDFQARSPREVTMKKGDVLTLLSSINKDWWKVEAADHQGIVPAVYVRRLAH [V4T] yielded an abundance fitness of -1.04 ± 0.23. For EQRGMALYDFQARSPREVTMKKGDVLTLLSSINKDWWKVEAADHQGIVPAVYVRRLAH [V4G], the abundance fitness was -1.05 ± 0.28. Variant EQRVMALADFQARSPREVTMKKGDVLTLLSSINKDWWKVEAADHQGIVPAVYVRRLAH [Y8A] has an abundance fitness of 0.346 ± 0.28. EQRVMALFDFQARSPREVTMKKGDVLTLLSSINKDWWKVEAADHQGIVPAVYVRRLAH [Y8F] gave an abundance fitness of 0.772 ± 0.34. Work on EHRVMALYDFQARSPREVTMKKGDVLTLLSSINKDWWKVEAADHQGIVPAVYVRRLAH [Q2H] yielded an abundance fitness of -0.061 ± 0.13. ERRVMALYDFQARSPREVTMKKGDVLTLLSSINKDWWKVEAADHQGIVPAVYVRRLAH [Q2R] gave an abundance fitness of -0.401 ± 0.17. With EERVMALYDFQARSPREVTMKKGDVLTLLSSINKDWWKVEAADHQGIVPAVYVRRLAH [Q2E] the abundance fitness was 0.108 ± 0.22. EVRVMALYDFQARSPREVTMKKGDVLTLLSSINKDWWKVEAADHQGIVPAVYVRRLAH [Q2V] gave an abundance fitness of -0.384 ± 0.37. Variant ELRVMALYDFQARSPREVTMKKGDVLTLLSSINKDWWKVEAADHQGIVPAVYVRRLAH [Q2L] has an abundance fitness of -0.573 ± 0.5. ESRVMALYDFQARSPREVTMKKGDVLTLLSSINKDWWKVEAADHQGIVPAVYVRRLAH [Q2S] gave an abundance fitness of -0.822 ± 0.42. With EFRVMALYDFQARSPREVTMKKGDVLTLLSSINKDWWKVEAADHQGIVPAVYVRRLAH [Q2F] the abundance fitness was 0.195 ± 0.48. In the case of EGRVMALYDFQARSPREVTMKKGDVLTLLSSINKDWWKVEAADHQGIVPAVYVRRLAH [Q2G], the abundance fitness is reported as -0.187 ± 0.17. Work on EARVMALYDFQARSPREVTMKKGDVLTLLSSINKDWWKVEAADHQGIVPAVYVRRLAH [Q2A] yielded an abundance fitness of -0.002 ± 0.27. EPRVMALYDFQARSPREVTMKKGDVLTLLSSINKDWWKVEAADHQGIVPAVYVRRLAH [Q2P] showed an abundance fitness of -0.874 ± 0.36. Work on EDRVMALYDFQARSPREVTMKKGDVLTLLSSINKDWWKVEAADHQGIVPAVYVRRLAH [Q2D] yielded an abundance fitness of 0.855 ± 0.26. ETRVMALYDFQARSPREVTMKKGDVLTLLSSINKDWWKVEAADHQGIVPAVYVRRLAH [Q2T] gave an abundance fitness of -0.614 ± 0.38.

Variants of: B2
Test: as above
Conditions: Homo sapiens
TCNCGQEAVLLTVRKEGPNRGRQFFKCNGGTCNFFLWADS [S31T] showed an abundance fitness of 0.114 ± 0.11. With TCNCGQEAVLLTVRKEGPNRGRQFFKCNGGDCNFFLWADS [S31D] the abundance fitness was 0.077 ± 0.094. TCNCGQEAVLLTVRFEGPNRGRQFFKCNGGSCNFFLWADS [K15F] showed an abundance fitness of -0.136 ± 0.12. TCNCGQEAVLLTVRREGPNRGRQFFKCNGGSCNFFLWADS [K15R] gave an abundance fitness of 0.108 ± 0.15. TCNCGQEAVLLTVRLEGPNRGRQFFKCNGGSCNFFLWADS [K15L] showed an abundance fitness of -0.325 ± 0.059. For TCNCGQEAVLLTVRKEGPNRGRQFFKCNGLSCNFFLWADS [G30L], the abundance fitness was -0.473 ± 0.14. In the case of TCNCGQEAVLLTVRKEGPNRGRQFFKCNGGSCNFPLWADS [F35P], the abundance fitness is reported as -0.388 ± 0.16. Work on TCNCGQEAVLLTVRKEGPNRGRQFFKCNGGSCNFFLRADS [W37R] yielded an abundance fitness of -0.51 ± 0.085. Variant TCNCGQEAVLLTVRKEGPNRGRQFFKCNGGSCNFFLGADS [W37G] has an abundance fitness of -0.48 ± 0.048. TCNCGQEAVLLTVWKEGPNRGRQFFKCNGGSCNFFLWADS [R14W] gave an abundance fitness of -0.075 ± 0.06. For TCNCGVEAVLLTVRKEGPNRGRQFFKCNGGSCNFFLWADS [Q6V], the abundance fitness was -0.338 ± 0.15.
